Experimental data published in doi:10.1101/2020.11.19.389874.

Key:
[1] = molecular target: Urn8RB (Urinate Receptor isoform RB) expressed in CHO/G16 cells (Tribolium castaneum)
[2] = molecular target: Urn8RA (Urinate Receptor isoform RA) expressed in CHO/G16 cells (Tribolium castaneum)

bioluminescence response of CHO/G16 cells expressing Urn8RB, dose-response, EC50 [1] | bioluminescence response of CHO/G16 cells expressing Urn8RA, dose-response, EC50 [2] | Substance
340 nM | 380 nM | Tribolium castaneum diuretic hormone 47 (DH47), unlabeled (peptide)
450 nM | 160 nM | Tribolium castaneum diuretic hormone 37 (DH37), unlabeled (peptide)
